For experiment [1], the target named is T1, human KDR-Fc chimeric fusion (R&D Systems #357-KD-05) (human, UniProt P35968 20-764).
T1 construct: bought; also called KDR Fc fusion
Put plainly: BIAcore steady state, KDAV, KDR-Fc at 1600 RU. As for the experimental part: (§1) All samples were injected in duplicate. […] Following a 10 minute dissociation, any remaining peptide was stripped from the KDR surface with a quickinject of 50 mM NaOH+1 M NaCl for 12 s at 75 μL/min. Sensorgrams were analyzed using BIAevaluation software 3.1 and a hyperbolic double rectangular regression equation in SigmaPlot 6.0.
(In SPR one partner is held on a chip, and binding of the other changes the refractive index at the surface.)

Experiment [2] concerns the target T1, human KDR-Fc chimeric fusion (R&D …). Kind of experiment: BIAcore steady state, KD1, KDR-Fc at 6000 RU. As for the experimental part: as §1
In experiment [3] the target is T2, KDR on HUVECs (human, UniProt P35968 20-1356). Put plainly: cell-based or functional assay.
Experiment [4] concerns the target T1, human KDR-Fc chimeric fusion (R&D …). Kind of experiment: BIAcore steady state, KDAV, KDR-Fc at 6000 RU. The protocol:
as §1

The target is the same in experiment [5]. Kind of experiment: BIAcore steady state at the higher immobilization densities. The protocol:
as §1

For experiment [6] the target is unchanged. Kind of experiment: BIAcore steady state, KDAV, KDR-Fc at 3000 RU. As for the experimental part:
as §1

For experiment [7] the target is unchanged. Kind of experiment: BIAcore steady state, KD1, KDR-Fc at 3000 RU. As for the experimental part:
as §1

The target is the same in experiment [8]. Put plainly: BIAcore steady state, KD1, KDR-Fc at 1600 RU. As for the experimental part: as §1
Experiment [9] concerns the target T2, KDR on HUVECs. Put plainly: cell-based or functional assay. This is another data set of the same source.
The target of experiment [10] is T3, KDR on KDR-transfected 293H cells (human, UniProt P35968 20-1356).
T3 construct: whole, on cells; also called KDR-expressing cells; KDR-transfected cells
Put plainly: radioligand binding, 1-4 µCi/mL, KDR- vs mock-transfected 293H cells.

For experiment [11], the target named is T3, KDR on KDR-transfected 293H cells. Put plainly: competitor 125I-VEGF (300 pM), KDR-transfected 293H cells, peptide 30 µM.
Experiment [12] shares this target. Kind of experiment: competitor 125I-VEGF (300 pM), KDR-transfected 293H cells, peptide 0.3 µM.
Experiment [13] has the same target. Put plainly: Tc-labeled dimer on KDR- vs mock-transfected 293H cells.

Bridge positions count the residues as written; N and C are the ends. Primed or numbered codes have the meaning given here. Ends that are not written are not given here. I, II: the chains in the order shown. * marks the point of attachment. ivDde′ = (4,4-dimethyl-2,6-dioxocyclohex-1-ylidene)-3-methylbutyl protecting group, CC(C)CC(=C1C(=O)CC(C)(C)CC1=O)* A value given as a limit tells only on which side of the number the result lay.

T3 sequence (P35968 20-1356): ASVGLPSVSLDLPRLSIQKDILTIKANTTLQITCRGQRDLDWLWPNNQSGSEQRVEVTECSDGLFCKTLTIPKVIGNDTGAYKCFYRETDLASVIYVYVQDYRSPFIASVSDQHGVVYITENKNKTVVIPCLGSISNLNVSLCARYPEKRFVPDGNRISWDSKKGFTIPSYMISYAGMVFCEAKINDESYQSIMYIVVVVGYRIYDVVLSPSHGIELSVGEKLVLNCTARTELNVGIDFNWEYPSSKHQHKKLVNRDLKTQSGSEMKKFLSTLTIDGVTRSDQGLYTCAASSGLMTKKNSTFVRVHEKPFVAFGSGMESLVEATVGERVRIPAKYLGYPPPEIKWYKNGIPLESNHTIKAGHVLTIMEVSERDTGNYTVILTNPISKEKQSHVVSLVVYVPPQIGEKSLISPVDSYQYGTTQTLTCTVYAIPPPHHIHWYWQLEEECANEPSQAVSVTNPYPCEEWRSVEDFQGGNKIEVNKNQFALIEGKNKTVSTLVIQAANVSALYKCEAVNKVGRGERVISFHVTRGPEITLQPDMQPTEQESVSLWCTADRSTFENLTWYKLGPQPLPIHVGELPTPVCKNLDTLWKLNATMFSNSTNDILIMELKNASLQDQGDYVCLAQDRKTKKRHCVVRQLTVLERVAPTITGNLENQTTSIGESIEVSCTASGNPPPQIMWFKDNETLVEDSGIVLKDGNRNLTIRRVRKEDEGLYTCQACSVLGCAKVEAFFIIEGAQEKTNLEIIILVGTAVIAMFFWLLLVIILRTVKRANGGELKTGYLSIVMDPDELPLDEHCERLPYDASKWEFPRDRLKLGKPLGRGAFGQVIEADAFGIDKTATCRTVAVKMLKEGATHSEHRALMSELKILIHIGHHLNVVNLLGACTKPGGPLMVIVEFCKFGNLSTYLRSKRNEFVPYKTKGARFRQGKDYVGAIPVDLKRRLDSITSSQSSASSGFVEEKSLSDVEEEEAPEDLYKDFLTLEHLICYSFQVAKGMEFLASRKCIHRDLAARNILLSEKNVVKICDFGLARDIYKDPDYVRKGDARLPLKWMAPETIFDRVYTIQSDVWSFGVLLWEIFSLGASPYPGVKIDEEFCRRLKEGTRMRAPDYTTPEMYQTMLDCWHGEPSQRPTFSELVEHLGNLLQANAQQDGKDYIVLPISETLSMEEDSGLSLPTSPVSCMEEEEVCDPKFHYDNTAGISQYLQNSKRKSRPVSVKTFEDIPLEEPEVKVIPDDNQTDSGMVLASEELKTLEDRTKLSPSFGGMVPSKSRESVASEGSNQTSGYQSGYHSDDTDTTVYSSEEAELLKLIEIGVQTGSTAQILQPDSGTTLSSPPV
T2 sequence (P35968 20-1356): as above
T1 sequence (P35968 20-764, change not shown): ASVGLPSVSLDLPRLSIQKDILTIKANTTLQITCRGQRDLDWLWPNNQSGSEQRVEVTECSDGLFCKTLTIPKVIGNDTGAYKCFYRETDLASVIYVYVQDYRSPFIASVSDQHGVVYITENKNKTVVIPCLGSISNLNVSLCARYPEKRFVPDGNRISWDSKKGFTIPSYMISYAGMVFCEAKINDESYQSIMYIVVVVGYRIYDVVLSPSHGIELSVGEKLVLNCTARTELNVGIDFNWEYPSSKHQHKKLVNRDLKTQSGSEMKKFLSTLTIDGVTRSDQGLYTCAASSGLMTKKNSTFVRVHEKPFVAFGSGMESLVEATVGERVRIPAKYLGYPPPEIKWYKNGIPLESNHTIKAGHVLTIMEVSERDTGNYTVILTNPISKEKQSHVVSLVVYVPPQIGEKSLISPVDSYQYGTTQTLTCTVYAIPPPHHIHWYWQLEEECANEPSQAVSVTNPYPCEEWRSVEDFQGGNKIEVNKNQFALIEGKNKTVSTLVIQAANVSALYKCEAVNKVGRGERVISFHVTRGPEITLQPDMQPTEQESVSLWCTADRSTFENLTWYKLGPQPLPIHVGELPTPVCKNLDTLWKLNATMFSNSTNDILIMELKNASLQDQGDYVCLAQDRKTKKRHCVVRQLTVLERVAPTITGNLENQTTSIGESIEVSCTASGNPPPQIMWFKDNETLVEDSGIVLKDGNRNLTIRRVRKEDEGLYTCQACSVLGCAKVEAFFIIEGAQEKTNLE

B1: dimer 6 (D6) (peptide)
peptide 1: GDSRVCWEDSWGGEVCFRYDPGGGK
peptide 2: AGPTWCEDDWYYCWLFGTGGGK
modifications: disulfide I:6-I:16, II:6-II:13 (inferred); also: heterodimer made with glutaric acid bis-NHS ester
notes: heterodimer made with glutaric acid bis-NHS ester
The term Kd denotes the free concentration of one partner at which half of the binding sites on the other are occupied at equilibrium, for simple one-to-one binding. A high value points to a looser complex. Take B1: the Kd in experiment [1] is 1.5 nM; in [2], 17 nM; in [4], 0.662 nM; in experiment [5] it was about 0.6 nM; in [6] it was 0.665 nM; in [7] it was 25.5 nM. In experiment [8], this molecule showed a Kd of 46 nM. In addition, the “IC50, VEGF-induced HUVEC migration” value in the experiment with KDR on HUVECs [3] was about 12.5 nM.

As for Ac-AGWLECYAEFGHCYNFGTGGGK-NH2 (disulfide 6-13 (inferred); also: fluorescein on C-terminal Lys in FP only) [SEQ ID NO:267], the “VEGF-induced KDR phosphorylation, HUVEC immunoblot” value (from here on “VEGF-induced KDR phosphorylation”) in the experiment with KDR on HUVECs [9] was at least 50 % inhibition at 10 µM.

On to Ac-GDWWECK(ivDde′)REEYRNTTWCAWADPGGGK-NH2 (disulfide 6-17 (inferred)) [SEQ ID NO:366 having a blocked K], for which, in the experiment with KDR on HUVECs [9], the “VEGF-induced KDR phosphorylation” value is at least 50 % inhibition at 10 µM.

B2: 125I-labeled D5 (peptide)
peptide 1: Ac-VCWEDSWGGEVCFRYDPGGGK-NH2
peptide 2: Ac-AGPTWCEDDWYYCWLFGTGGGK-NH2
modifications: disulfide I:2-I:12, II:6-II:13 (inferred); not fully specified (bridges); also: dimer joined by JJ-glutaryl-Lys linker, 125I Bolton-Hunter label, site not given here
notes: also called dimer 5
Regarding B2, the binding result in experiment [10] is “binds”. With Ac-GDSRVCWEDSWGGEVCFRYDPGGGK-NH2 (disulfide 6-16 (inferred); also: fluorescein on C-terminal Lys in FP only) [SEQ ID NO:294], the “VEGF-induced KDR phosphorylation” value in the experiment with KDR on HUVECs [9] is at least 50 % inhibition at 10 µM. In addition, the “% inhibition of 125I-labeled VEGF binding” value in [11] was determined as 96.3%; in experiment [12] it was 52.3%.

B3: dimer 25 (D25) (peptide)
peptide 1: Ac-AGPTWCEDDWYYCWLFGTGGGK-NH2
peptide 2: Ac-GDSRVCWEDSWGGEVCFRYDPGGGK-NH2
modifications: disulfide I:6-I:13, II:6-II:16 (inferred); not fully specified (bridges); also: dimer joined by JJ-Glut-Lys linker
B3: in the experiment with KDR on HUVECs [3], the “IC50, VEGF-induced HUVEC migration” value is 5 nM.

B4: dimer 17 (D17) (peptide)
peptide 1: AQDWYYDEILGRGGRGGRGGK
peptide 2: VCWEDSWGGEVCFRYDPGGGK
modifications: not fully specified; N-acetyl; C-terminal Lys(JJ-Glut) amide; N-acetyl; J spacer within the chain
For the molecule B4, the “IC50, VEGF-induced HUVEC migration” value in the experiment with KDR on HUVECs [3] was about 250 nM. For Ac-AQEPEGYAYWEVITLYHEEDGDGGK-NH2 (also: fluorescein on C-terminal Lys in FP only) [SEQ ID NO:305], the “VEGF-induced KDR phosphorylation” value in the experiment with KDR on HUVECs [9] is at least 50 % inhibition at 10 µM.

B5: Tc-labeled D18 (scrambled derivative of D10) (peptide)
peptide 1: Ac-APGTWCDYDWEYCWLGTFGGGK-NH2
peptide 2: Ac-GVDFRCEWSDWGEVGCRSPDYGGGK-NH2
modifications: disulfide I:6-I:13, II:6-II:16 (inferred); not fully specified (some residues, bridges); also: 99mTc chelated by PnAO6, J not defined
notes: control; also called dimer 18
B5: in [13], the binding result was “no binding (tested: up to 10 µCi/mL)”. On to Ac-AGWIECYHPDGICYHFGTGGGK-NH2 (disulfide 6-13 (inferred); also: fluorescein on C-terminal Lys in FP only) [SEQ ID NO:269], for which the “VEGF-induced KDR phosphorylation” value with KDR on HUVECs [9] is at least 50 % inhibition at 10 µM.

In the case of Ac-AQGDYVYWEIIELTGATDHTPPGGK-NH2 (also: fluorescein on C-terminal Lys in FP only) [SEQ ID NO:307], the “VEGF-induced KDR phosphorylation” value in the experiment with KDR on HUVECs [9] was at least 50 % inhibition at 10 µM. The same measure, in the same setting: the value for Ac-AQAFPRFGGDDYWIQQYLRYTDGGK-NH2 (also: fluorescein on C-terminal Lys in FP only) [SEQ ID NO:306] was at least 50 % inhibition at 10 µM.

Consider Ac-AGPTWCEDDWYYCWLFGTGGGK-NH2 (cysteine pairing not given here; also: fluorescein on C-terminal Lys in FP and) [SEQ ID NO:277], for which the “IC50, receptor activation assay” value in the experiment with KDR on HUVECs [3] amounted to 100 nM. The “% inhibition of 125I-labeled VEGF binding” value in [11] amounted to 104%; in experiment [12], 81%. In the case of Ac-GDPDTCTMWGDSGRWYCFPADPGGGK-NH2 (disulfide 6-17 (inferred); also: fluorescein on C-terminal Lys in FP only) [SEQ ID NO:301], in the experiment with KDR on HUVECs [9], the “VEGF-induced KDR phosphorylation” value was at least 50 % inhibition at 10 µM.

Source of the values: patent US20100003195A1 (published 2010).
